Results from patent US20160031999A1 (CSL, published 2016).
“And” between values parts separate entries of the source, which are not always exact repeats. Equal entries are not always repeated.

T1: polypeptide of SEQ ID NO: 87 (human IL-11Rα 23-215 and mouse IL-11Rα 216-367, 8×HIS tag) (human and mouse (chimera))
T1 chain: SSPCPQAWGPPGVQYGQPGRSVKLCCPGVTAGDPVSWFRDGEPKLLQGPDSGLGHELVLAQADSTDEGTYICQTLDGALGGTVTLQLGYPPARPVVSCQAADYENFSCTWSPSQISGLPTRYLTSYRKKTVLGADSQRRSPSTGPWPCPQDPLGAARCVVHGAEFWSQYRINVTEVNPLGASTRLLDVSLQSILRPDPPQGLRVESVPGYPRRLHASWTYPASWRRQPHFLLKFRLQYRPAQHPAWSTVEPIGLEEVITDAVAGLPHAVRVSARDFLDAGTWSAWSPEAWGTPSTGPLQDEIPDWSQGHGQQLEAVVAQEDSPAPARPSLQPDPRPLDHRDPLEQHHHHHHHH

T2: polypeptide of SEQ ID NO: 88 (human IL-11Rα 23-318 and mouse IL-11Rα 319-367, 8×HIS tag) (human and mouse (chimera))
T2 chain: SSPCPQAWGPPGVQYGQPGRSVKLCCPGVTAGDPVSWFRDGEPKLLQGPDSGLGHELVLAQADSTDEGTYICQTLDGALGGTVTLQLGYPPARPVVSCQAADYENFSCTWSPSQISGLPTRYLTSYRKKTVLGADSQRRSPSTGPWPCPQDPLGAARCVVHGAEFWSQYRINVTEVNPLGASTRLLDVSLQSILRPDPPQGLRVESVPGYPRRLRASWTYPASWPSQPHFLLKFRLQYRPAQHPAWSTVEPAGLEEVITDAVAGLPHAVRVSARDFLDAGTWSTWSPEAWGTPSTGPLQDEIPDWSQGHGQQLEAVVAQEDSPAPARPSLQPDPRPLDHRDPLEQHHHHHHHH

T3: polypeptide of SEQ ID NO: 85 (amino acids 23 to 318 of human IL-11Rα, serine at position 248, 8×HIS tag) (human, UniProt Q14626 23-318)
T3 construct: also called WT D1/2; truncated hIL-11R
T3 sequence: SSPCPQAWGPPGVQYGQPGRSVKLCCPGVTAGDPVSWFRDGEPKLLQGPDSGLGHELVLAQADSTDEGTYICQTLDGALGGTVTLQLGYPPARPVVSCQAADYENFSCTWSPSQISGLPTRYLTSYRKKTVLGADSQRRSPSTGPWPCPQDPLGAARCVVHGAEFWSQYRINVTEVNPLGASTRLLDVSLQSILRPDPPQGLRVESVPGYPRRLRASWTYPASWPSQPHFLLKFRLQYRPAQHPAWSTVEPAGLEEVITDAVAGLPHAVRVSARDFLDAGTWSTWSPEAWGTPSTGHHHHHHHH

T4: polypeptide of SEQ ID NO: 3 (amino acids 23 to 363 of human IL-11Rα, serine at position 248, 8×HIS tag) (human, UniProt Q14626 23-363)
T4 construct: also called WT F/L
T4 sequence: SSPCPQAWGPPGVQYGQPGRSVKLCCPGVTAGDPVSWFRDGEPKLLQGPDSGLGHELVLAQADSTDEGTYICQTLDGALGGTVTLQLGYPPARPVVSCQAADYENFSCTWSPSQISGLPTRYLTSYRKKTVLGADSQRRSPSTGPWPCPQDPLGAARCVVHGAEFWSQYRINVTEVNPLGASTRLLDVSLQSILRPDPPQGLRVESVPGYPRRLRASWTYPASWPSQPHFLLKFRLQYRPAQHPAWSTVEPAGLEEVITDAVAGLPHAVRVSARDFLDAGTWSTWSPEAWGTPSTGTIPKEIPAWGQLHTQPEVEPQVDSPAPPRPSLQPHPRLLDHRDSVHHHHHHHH


How the values were obtained:
[1] = biological target: T1, polypeptide of SEQ ID NO: 87 (human …); assay: Biacore, domain-swapped receptor; strong = KD of about 10 nM or lower
Description: (§1) Various soluble forms of IL-11R comprising regions of hIL-11R and mIL-11R were produced and comprise sequences as set forth in SEQ ID NOs: 3 and 86-90 and the binding of antibodies 8E2, 8D10 and 8E4 to those polypeptides was determined using Western blotting or Biacore analysis.
(§2) For Biacore analysis, anti-human was IgG immobilized on the sensor surface at ˜10,000-12,000 RU and each antibody was captured at between 0.2 μg/ml and 0.5 μg/ml every cycle for 120 seconds. IL-11 receptors were injected over captured antibodies at varying concentrations, ranging from 1 μM down to 2.5 nM, including injections of buffer blanks. Association was monitored for 3-5 minutes, dissociation was monitored for 3-10 minutes. Approximate affinities were determined by fitting binding curves of each interaction to a 1:1 Kinetic Model.

[2] = biological target: T2, polypeptide of SEQ ID NO: 88 (human …); assay: as above
Description: as §1, §2

[3] = biological target: T3, polypeptide of SEQ ID NO: 85 (amino …); assay: Biacore, antibody captured on anti-human IgG Fc, receptor injected; mean ± SE
Description: (§3) Various point mutants of soluble forms of IL-11R were produced in which amino acids from mIL-11 were introduced into a soluble form of hIL-11 (SEQ ID NO: 85) (see Table 5 for positions of mutations relative to SEQ ID NO: 1 and for reference to the SEQ ID NO: of each polypeptide) and the binding of antibodies to those polypeptides or to polypeptides of SEQ ID NO: 3 or SEQ ID NO: 85 was determined using Biacore analysis or FACS.
(§4) Anti human IgG Fc specific antibody was chemically immobilized on a CM5 chip to ˜9000 RU. Antibodies were captured at about 0.3-1 μg/ml for 120 seconds on 2 spots in each flow cell. Adjacent spots consisting of only anti human IgG were used as a reference. IL-11 receptors were injected over the captured antibodies and reference spots at 40, 10, 5 and 2.5 nM in duplicate. Blank injections of buffer only were also performed in duplicate. Injection was performed for 3 minutes and dissociation monitored for a further 5 minutes.

[4] = biological target: T4, polypeptide of SEQ ID NO: 3 (amino …); assay: Biacore, antibody captured on anti-human IgG Fc, receptor injected; mean ± SE, N = 3
Description: as §3, §4

[5] = biological target: T3, polypeptide of SEQ ID NO: 85 (amino …); assay: Biacore, antibody captured on anti-human IgG Fc, receptor injected; N = 2, both values shown
Description: as §3, §4

| binding result [1] | binding result [2] | Kd [3] [nM] | Kd [4] [nM] | Kd [5] | Binder |
| --- | --- | --- | --- | --- | --- |
| binds | binds | 2.78 | 4 | 3.2 nM and 3.7 nM | antibody 8E4 (antibody, human IgG4 S228P, lambda, V domains shown) VH: EVQLLESGGGLVQPGGSLRLSCAASGFTFSWYFMGWVRQAPGKGLEWVSYIYPSGGSTGYADSVKGRFTISRDNSKNTLYLQMHSLRAEDTAVYYCARDEGYCSSTSCYFDAFDIWGQGTMVTVSS VL: QSALTQPPSASGSPGQSVAISCTGTSSDVGGYNFVSWYQQHPGKAPKLLIYEVTKRPSGVPDRFSGSKAGNTASLTVSGLQAEDEADYYCSSYGGSNNAGVFGTGTKVTVLG |
| binds | binds | 0.58 | 1 | 0.57 nM and 0.69 nM | antibody 8D10 (antibody, human IgG4 S228P, kappa, V domains shown) VH: EVQLLESGGGLVQPGGSLRLSCAASGFTFSRYMMGWVRQAPGKGLEWVSSIVPSGGITIYADSVKGRFTISRDNSKNTLYLQMNSLRAEDTAVYYCARDHMGIVATDWGQGTLVTVSS VL: DIQMTQSPSSLSASVGDRVTITCQASQDITNYLNWYLHKPGKAPKLLIYDASNLQTGVPSRFSGSGSGTDFTFTITSLQPEDFGTYYCQQYDTLHPSFGPGTTVDIKR |
